Molecular target: full length extracellular fragment of FGFR1-IIIc fused to the Fc (UniProt P11362)
Assay: BLI; FGFR1c-Fc loaded on Protein A biosensors (20 μg/mL, 600 s); FGF1 proteins 100 to 800 nM in solution; PBS, 25 °C, 1000 rpm; global fit with the 2:1 heterogeneous ligand model and steady state analysis; three independent experiments

Sequence of UniProt P11362 (P11362 22-376): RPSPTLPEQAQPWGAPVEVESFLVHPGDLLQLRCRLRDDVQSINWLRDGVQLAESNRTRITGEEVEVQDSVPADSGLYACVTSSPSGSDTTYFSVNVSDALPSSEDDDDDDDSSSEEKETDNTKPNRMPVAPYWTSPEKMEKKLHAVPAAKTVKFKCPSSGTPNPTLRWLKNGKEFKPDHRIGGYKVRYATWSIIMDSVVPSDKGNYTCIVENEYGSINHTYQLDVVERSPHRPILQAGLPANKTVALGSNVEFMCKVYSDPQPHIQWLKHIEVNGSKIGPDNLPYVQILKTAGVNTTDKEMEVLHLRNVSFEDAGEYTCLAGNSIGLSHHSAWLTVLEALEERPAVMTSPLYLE

Substance | KD1 (2:1 heterogeneous ligand model) | KD2 (2:1 heterogeneous ligand model)
FGF1 Q40P/S47I/H93G variant (Ala-FGF1 21-154) (ligand) | 1.02e-07 | 1.05e-07
FGF1 R35E mutant (Ala-FGF1 21-154) (ligand) | 291 nM | 152 nM
FGF1 R35E/Q40P/S47I/H93G mutant (Ala-FGF1 21-154) (ligand) | 477 nM | 690 nM
wild-type fibroblast growth factor 1, truncated form (Ala-FGF1 21-154) (ligand) | 46.9 nM | 75.6 nM

Reference: article PMC6721657
